One assay concerns the target HLA-B*44:02. As to the kind of experiment: IEDB peptide-MHC binding, purified MHC/competitive/radioactivity; filed as Kd, often an IC50 or EC50 that approximates it; ≥ and ≤ were set here for values at or beyond the usual limits of such assays.
Assay [1] has as its target HLA-B*40:01. Described as above.
In another assay the target is HLA-B*44:03. The assay is described as above.
For another assay, the target named is HLA-A*01:01. Described as above.
Another assay concerns the target HLA-A*24:02. The description is as above.
The target of another assay is HLA-A*23:01. The description is as above.
In a further assay the target is HLA-A*32:01. The assay is described as above.
Assay [2] has as its target HLA-A*11:01. The assay is described as above. The note with it: source organism: Dengue virus 1 Brazil/97-11/1997.
A further assay addresses HLA-A*26:01. The description is as above.
Another assay deals with HLA-A*30:02. The assay is described as above.
The target in assay [3] is HLA-B*40:01. As to the kind of experiment: IEDB peptide-MHC binding, purified MHC/direct/fluorescence; filed as Kd, often an IC50 or EC50 that approximates it; ≥ and ≤ were set here for values at or beyond the usual limits of such assays. The note with it: source organism: Mammarenavirus lassaense.
For a further assay, the target named is HLA-A*02:02. Briefly: IEDB peptide-MHC binding, purified MHC/competitive/radioactivity; filed as Kd, often an IC50 or EC50 that approximates it; ≥ and ≤ were set here for values at or beyond the usual limits of such assays. The note with it: source organism: Vaccinia virus WR.
Another assay addresses HLA-A*02:06. The description is as above. The note with it: source organism: Vaccinia virus WR.
Another assay has as its target HLA-A*02:03. The description is as above. The note with it: source organism: Vaccinia virus WR.
The target of assay [4] is HLA-A*11:01. As to the kind of experiment: IEDB peptide-MHC binding, purified MHC/direct/fluorescence; filed as Kd, often an IC50 or EC50 that approximates it; ≥ and ≤ were set here for values at or beyond the usual limits of such assays. The note with it: source organism: Bacillus anthracis.
A further assay has as its target HLA-B*15:01. Described as above. The note with it: source organism: Salmonella enterica subsp. enterica serovar Typhimurium.
[5] abbreviates: source organism: Dengue virus 4 Philippines/H241/1956.
Setting [6] is: source organism: Dengue virus 1 Brazil/97-11/1997.
Where [7] appears, read: source organism: Dengue virus 3 Martinique/1243/1999.
Setting [8] is: source organism: Mammarenavirus brazilense.
Where [9] appears, read: source organism: Dengue virus 2 Jamaica/1409/1983.
The mark [10] stands for this setting: source organism: Vaccinia virus WR.
The mark [11] stands for this setting: source organism: Dengue virus 1 Nauru/West Pac/1974.
Setting [12] is: source organism: Dengue virus 2 Peru/IQT2913/1996.

In general, Kd refers to a measure of binding affinity in units of concentration. As for MEFIDGISL, the Kd amounted to 182 nM in the assay with HLA-B*44:02 (setting [5]), 0.18 nM with HLA-B*40:01 [1] (setting [5]) and 52.9 nM with HLA-B*44:03 (setting [5]).
MTGTLAVFLL: in the assay with HLA-A*01:01 (setting [6]), the equilibrium dissociation constant (Kd) was ≥ 34600 nM.
As for EYPKTKLTDW, the equilibrium dissociation constant (Kd) came to 954 nM with HLA-A*24:02 (setting [5]) and 2550 nM with HLA-A*23:01 (setting [5]).
In the case of LEELGDGLAM, in the assay with HLA-B*40:01 [1] (setting [6]), the Kd turned out to be 51.2 nM.
As to SLEKAANVQW, in the assay with HLA-B*44:02 (setting [5]), the dissociation constant Kd was 10700 nM.
On to TENILTVLL, for which the dissociation constant (Kd) in the assay with HLA-B*44:02 (setting [7]) is 0.409 nM; in the assay with HLA-B*40:01 [1] (setting [7]), 12.2 nM; in the assay with HLA-B*44:03 (setting [7]), 351 nM.
Turning to KLALITVSG, the Kd in the assay with HLA-A*32:01 (setting [5]) was found to be 82.8 nM.
Consider KEENMVKSL, for which, in the assay with HLA-B*40:01 [1] (setting [7]), the dissociation constant (Kd) turned out to be 156 nM.
GVPPLPLFIF: the Kd with HLA-A*24:02 (setting [7]) was determined as 494 nM.
Consider HEEPVPMSTY, for which the dissociation constant (Kd) with HLA-B*44:02 (setting [7]) turned out to be 106 nM; with HLA-B*44:03 (setting [7]), 409 nM.
As to KALKLSWFKK, the figures for the equilibrium dissociation constant (Kd) with HLA-A*11:01 [2] and in the assay with HLA-A*32:01 (setting [6]) were 135 nM and 9280 nM, respectively.
As for RSCTLPPLRF, the Kd with HLA-A*24:02 (setting [6]) amounted to 10700 nM; in the assay with HLA-A*23:01 (setting [6]), 2520 nM.
For the sequence GYKETPFLT, the dissociation constant (Kd) was ≥ 77900 nM in the assay with HLA-A*26:01 (setting [8]), ≥ 65200 nM with HLA-A*01:01 (setting [8]) and ≥ 76900 nM with HLA-A*30:02 (setting [8]).
As for SEVSNVQRL, in the assay with HLA-B*40:01 [3], the Kd turned out to be 70.9 nM.
Consider ASDRMGMGV, for which the Kd in the assay with HLA-A*01:01 (setting [7]) stood at 1370 nM.
On to KILLVAVSI, for which, in the assay with HLA-A*32:01 (source organism: Vaccinia virus Copenhagen), the Kd worked out at 1.54 nM.
As for EEKLSVVLF, the dissociation constant (Kd) with HLA-B*44:02 (source organism: Homo sapiens) turned out to be 143 nM.
AICSAVPVDW: in the assay with HLA-B*44:02 (setting [6]), the Kd is 893 nM.
As to KEIGRMLNI, the dissociation constant (Kd) with HLA-B*44:02 (setting [9]) worked out at 418 nM; in the assay with HLA-B*40:01 [1] (setting [9]), 216 nM; in the assay with HLA-B*44:03 (setting [9]), 417 nM.
For STIANSNII, the Kd with HLA-A*02:02 is 6120 nM; in the assay with HLA-A*02:06, 1240 nM; in the assay with HLA-A*32:01 (setting [10]), 14.3 nM; in the assay with HLA-A*02:03, 1470 nM.
Turning to AGILKRWGQL, in the assay with HLA-A*32:01 (setting [5]), the dissociation constant Kd was found to be 4440 nM.
EAILPEYGTL: the equilibrium dissociation constant (Kd) in the assay with HLA-A*26:01 (setting [7]) worked out at 13900 nM.
For the sequence FTNMEAQLV, the Kd in the assay with HLA-A*01:01 (source organism: Dengue virus 3 Sri Lanka/1266/2000) was determined as 403 nM.
On to IESQKNGSW, for which the results for the equilibrium dissociation constant (Kd) in the assay with HLA-B*44:02 (setting [7]) and with HLA-B*44:03 (setting [7]) were 452 nM and 166 nM, respectively.
For the sequence DEDNPYKTW, the Kd with HLA-B*44:02 (setting [6]) was determined as 519 nM; with HLA-B*44:03 (setting [6]), 640 nM.
On to MEKYQLAVTI, for which the Kd with HLA-B*44:02 (setting [9]) came out at 331 nM.
Turning to IFGTAYGVLF, the figures for the dissociation constant (Kd) with HLA-A*24:02 (setting [11]) and with HLA-A*23:01 (setting [11]) were 37.6 nM and 10.4 nM, respectively.
In the case of ATFLWWIPL, the Kd in the assay with HLA-A*11:01 [4] is 12.4 nM.
For GPISTLWEGN, the Kd with HLA-A*32:01 (setting [9]) was determined as 9040 nM.
For VAGGLLTVCY, the equilibrium dissociation constant (Kd) was ≥ 37000 nM in the assay with HLA-A*01:01 (setting [9]) and 108 nM with HLA-A*30:02 (setting [9]).
Turning to IIIFFIVLI, the Kd with HLA-A*32:01 (setting [10]) was determined as 13.7 nM.
Regarding IISYIILFI, the dissociation constant Kd was 2.78 nM in the assay with HLA-A*02:02, 27.1 nM with HLA-A*02:06, ≥ 27600 nM with HLA-A*32:01 (setting [10]) and 58.7 nM with HLA-A*02:03.
As to ITINYFLLL, the dissociation constant Kd in the assay with HLA-A*32:01 (setting [10]) is ≥ 77800 nM.
With LKIVRNMEKY, in the assay with HLA-A*30:02 (setting [9]), the Kd came out at 55.2 nM.
On to DFKGKTVWF, for which the Kd in the assay with HLA-A*23:01 (setting [9]) worked out at 14400 nM.
Consider IEKASFIEV, for which, in the assay with HLA-B*40:01 [1] (setting [12]), the Kd worked out at 4040 nM.
AFLPWHRLF: the dissociation constant Kd in the assay with HLA-A*24:02 (source organism: Homo sapiens) was 20 nM.
Turning to TVITPMLRH, the equilibrium dissociation constant (Kd) in the assay with HLA-A*26:01 (setting [7]) stood at 14300 nM.
Turning to RTAGMIIML, the dissociation constant Kd in the assay with HLA-A*32:01 (setting [12]) was 96.5 nM.
With NRKGKVIGLY, the dissociation constant (Kd) in the assay with HLA-A*30:02 (setting [5]) amounted to 109 nM.
RSIMGSNNI: the Kd with HLA-A*32:01 (setting [10]) was 141 nM.
In turn, IQRDQVTDY displayed a Kd in the assay with HLA-B*15:01 of 239 nM.

Values taken from the Immune Epitope Database (IEDB).
